Results on seven molecules are retold here after patent publication US10155985B2, “Evaluation of eosinophilic esophagitis” (CHILDREN'S HOSPITAL MEDICAL CENTER, priority 2004, dated 2018).

This series concerns EE transcriptome. Description: Genome-wide microarray transcript profiling of esophageal biopsies, EE patients vs normal individuals (EE transcriptome). As to conditions: Affymetrix Human Genome U133 plus 2, p<0.01. The method, boiled down: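 Distal esophageal biopsies from EE patients (n=76; >24 eosinophils/hpf, basal hyperplasia) and normal controls (n=13; 0 eosinophils/hpf) profiled on Affymetrix Human Genome U133 plus 2 chips. Expression by absolute call and average difference, global scaling; transcriptome genes defined as p<0.01 (Welch t-test) and ≥1.5-fold change.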

Where [1] appears, read: transcript level in esophageal biopsies of EE patients (n=76) compared to normal individuals (n=13).

B1: SEQ_ID_#165 (nucleic acid, listed as Homo sapiens)
DNA: CCAAAAAGTCAGTTGATATGACACAGTCACAGACAGAACAGTCAGCAGCCCAAGAAAGGTCCTCACGGCTGCTGTGCTGGGTAGCACTTGCCATCCAGTTTCTAGAGTGATGAAATGCTCTGTCTGTACCGTTCAATACAGTAGGCACTGGCACTAGCCACATGTGCCAGCTAAGCACTTGAAATGTGGCCAGTGCAATAAGGAATTGAACTTTTAATTGCATTTAATAAACTGTATGTAAATAG
On to B1, for which, under setting [1], the “Fold Change” value amounted to 2.732.

B2: SEQ_ID_#185 (nucleic acid, listed as Homo sapiens)
DNA: AATAATTAATGCAATTTAATGACAATAAATAAACTTCAAAGTCCCGCCAAAACCAGCAGAACCTCATCAAAGCAAAAGAAACAAGCTTCTTTCCAGCTCAGAGGTGAAGCGCTGCAGATGGCCAGTGTTTCATCTCGAGGGGAGGGTTGGGAAAGGCTGTGGAATGAGGG
B2: under setting [1], the “Fold Change” value was 2.62.

B3: SEQ_ID_#19 (nucleic acid, listed as Homo sapiens)
DNA: ATGGCCTGGACCCCTCTGCTCCTCATGTTCCTCTCTCATTGCTCAGGTGAGAACTGGTTTTAGGTGTCTAGGGTTAGCTCCTTAGCTTGCGTCAGCCTCTCTGGCTCAGATCCCCAAGACATGTATCTCTAGTTCCTGCCCCAGCCCCCATGAGTGTCTGTGCTTGCAGGTTCCCTCTCCCAGCCTGTGCTGACTCAGATGACCTCACTCTCTGCATCTCCGGGAGCATGAGCCAGACTTACCTGCACCCTGAGCAGTGGCTTCAGAGTTGGTAACTTTGCAATATAGTGGTCAGCTGAAGCCAGGCAGCCGTCCCAGGTGTCTCCTGAGATACTACTCAGACTCAAATATCACTCAGCACCCTGGGGTTCCCATCCACTTCTCTGGATCCAATGATACATTAGCCAATGCAGGGATTCTGTACATTCCTGGGCTGAAGCCTGAGGGTGAGGCTATTACTGTTGTACGTGTCACAGCAGCTCCAAGT
Turning to B3, the “Fold Change” value under setting [1] is reported as 10.29.

B4: SEQ_ID_#116 (nucleic acid, listed as Homo sapiens)
DNA: TGTAAGTATTTACTTTTAATTCTACTTTCAGGTGGAAAATGATGAGAACTCCTTAGGGGGTCTTTAATCTCAAGATTGTCAGTCTAGCTAAATATAATTAAAAGACTGCCTTCTGTGTTTACTGCTGAATAATGATGAGAAAAAATAGTGTAATTTTTTTAATGTTTGCTAACCAGGTTCTCCATAGACAACTTTAGTCAGTGGTCATAATATTGTAGATTTAGCTGCAAATTTAAGAGGTGAGAAAAGGAATATGTTTGTTCCTAGGTTTGTTCTAATCAGACCAATTCAAAGTTAATATTGCAAGGCTATACAACATCTATCTCATCCAAATTGTTGTTTTATAGCTTTCAAACATCCTTTTTAACTTCTCTGCTCTGCCACTCATCATTCCATTAGGGCAAAAAGAAACAAAACTTAAGCTTTGAAGCTCATTAGATACATACTTTAAAAAATAGATCAAAATAAGCAAAAAGTACAATTTGTATTATCTGCATGAGTTTCTAGTTATCAGTGACCTAAGCTAAGTCTGGCTTTTAGTAGCAAGATTTTAGCATACCAGGCTCTCAAGGGAGGTATTTCTCAGTATTATTTCAATTTTTAAAGGATAAAGACATGTTCTAATTTAAATTTATTGAAATTTGATAATCCATGTGACTTTTCAGTACTGTGCTTGGTGCTTTAGATGGAAATAGGATAAATATCTGACTCAATCATCCAGGAGTCATGATACATACTTTACAATCTGATTTA
In the case of B4, the “Fold Change” value under setting [1] is listed as 3.363.

B5: SEQ_ID_#95 (nucleic acid, listed as Homo sapiens)
DNA: TTTTTTTTTTTTTTTTGTAATAAGAAAAAATTTTAGTAAAAGAAAATTCTCACAAAGTTTTTAGTAAATGAGATTATGTTCATGAATGTGTTTGGTAAACTGTAACTCCACAGGGCAGCTCCAAGTCATGAGTGTGCAGTTGGGCTCAAACCGTACAGAAGTCATTTCCAGGATGTTATCCTTACTCTTCTAGGAGCCCACATCGCCCAGATGAGGAAGGCCACCGCTGCCGCCAACGCCGACTACCGTGAGCAGCTTCCTGCTCCCCTGTCGTCGCCTCTGCGGTCGGGGCACTTTCCCCAAAGCGCT
In the case of B5, under setting [1], the “Fold Change” value is listed as 3.633.

B6: SEQ_ID_#1069 (nucleic acid, listed as Homo sapiens)
DNA: GCCGCCTCCTCCTGGGCTGGGCCCGCGGTGTCTCGTCCCCTCGCGGAGCCGCTCCTGCCGCCGCCGCCGCCGCCTCCTCATTCATCCTCGTGCACCATAGGCGGCACAGGCACCAAGATGTCCAACCGAGTGGTCTGCCGAGAAGCCAGTCACGCCGGGAGCTGGTACACAGCCTCAGGACCGCAGCTGAATGCACAGCTAGAAGGTTGGCTTTCACAAGTACAGTCTACAAAAAGACCTGCTAGAGCCATTATTGCCCCCCATGCAGGATATACGTACTGTGGGTCTTGTGCTGCCCATGCTTATAAACAAGTGGATCCGTCTATTACCCGGAGAATTTTCATCCTTGGGCCTTCTCATCATGTGCCCCTCTCTCGATGTGCACTTTCCAGTGTGGATATATATAGGACACCTCTGTATGACCTTCGTATTGACCAAAAGATTTACGGAGAACTGTGGAAGACAGGAATGTTTGAACGCATGTCTCTGCAGACAGATGAAGATGAACACAGTATTGAAATGCATTTGCCTTATACAGCTAAAGCCATGGAAAGCCATAAGGATGAGTTTACCATTATTCCTGTACTGGTTGGAGCTCTGAGTGAGTCAAAAGAACAGGAATTCGGAAAACTCTTCAGTAAATATCTAGCGGATCCTAGTAATCTCTTTGTGGTTTCTTCTGATTTCTGCCATTGGGGTCAAAGGTTCCGTTACAGTTACTATGATGAATCCCAGGGGGAGATTTATAGATCCATTGAACATCTAGATAAAATGGGTATGAGTATTATAGAACAATTAGACCCTGTATCTTTTAGCAATTACTTGAAGAAATACCATAATACTATATGTGGAAGACATCCCATTGGGGTGTTATTAAATGCTATCACAGAGCTCCAGAAGAATGGAATGAATATGAGTTTTTCGTTTTTGAATTATGCCCAGTCGAGCCAGTGTAGAAACTGGCAAGACAGTTCAGTGAGTTATGCAGCTGGAGCACTCACGGTCCACTGAAGCTCTGAATCCTCAGGGATGCCACCTGCACATTCTCATACTCTGTCCGGGGTCCCAGCCTAGCCTTTACCACGATACTGGTCCTGGTTTGGGGGGATTCTGAAACCTCAAACTAATAGAACTTTCTTCTCTTTTTTTCTAGTAGGTGTAGTCCTTCCTTAATTTCAACTCATTAAAAAATGCTTTATAGTTTAGGGCAGTGGAAGGAAGGCTGGCATCAAAATATTTTGATCAAAAAAGATGACAATGTAAAGGCTCAGTTGTGGCAGACAGTTTTTT
In the case of B6, the “Fold Change” value (transcript level in esophageal biopsies of EE patients compared to normal individuals (NL), >1 up-regulated, <1 down-regulated) was found to be 0.587.

B7: SEQ_ID_#142 (nucleic acid, listed as Homo sapiens)
DNA: TAGAGGTTAAATGACCCCATTTGTGGGGTGGTTTATTGTTAAAATGATTAAACATGCTAAAATCACATGGAGTGGCTATTCCACTTTTGCCCTGACTCCATAGTGGGGCAAATGGGAACTACAGGAGTCACTTGGTTTGTGTGGCCTCTGGGGATGGTTAGACTTGGAGGGTTAGCGGTGAGCAGGTTAGCAAAGCCCCAAGCATCCTTCATGTAGTACACTTTTCCCAGCAGTAAAAAAATTCAGAGATTTCCCCCTTCTTCACTTTTCTTTCCTCCCTATATGTGCCCTACTTCTCATTCTCCTATGGCCCTGGAACCTCTTATGCTTCTGCCCGTTATGGTCTTAGACTAGATGATGAGGGAGGCTTTTCCTTGACACCAGCATTCCAGTCT
Consider B7, for which the “Fold Change” value under setting [1] is 2.896.
